{"source": "patent US11833215B2", "about": "“CKIT antibody drug conjugates” (Novartis AG, priority 2014, dated 2023)", "molecules": {"B1": {"name": "NEG085: anti-cKIT antibody of Table 3, VH SEQ ID NO 82, VL SEQ ID NO 91 (antibody, listed as Homo sapiens, V domains shown)", "VH": "EVQLVESGGGLVQPGGSLRLSCAASGFAFSGYYMAWVRQAPGKGLEWVANINYPGSSTYYLDSVKGRFTISRDNAKNSLYLQMNSLRAEDTAVYYCARGDYYGTTYWYFDVWGQGTTVTVSS", "VL": "DIQMTQSPSSLSASVGDRVTITCRASQSISSYLNWYQQKPGKAPKLLIYYTSRLQSGVPSRFSGSGSGTDFTLTISSLQPEDFATYYCQQGRRLWSFGGGTKVEIK"}}, "key": {"[1]": {"system": "cKIT on normal human CD34+ bone marrow cells", "assay": "cKIT receptor internalization on bone marrow cells by flow cytometry", "type": "cell-based", "conditions": "10 μg/ml, 37° C.", "protocol": "In another internalization experiment, the impact of NEG085 on cKIT receptor levels was evaluated on human bone marrow cells. Normal human CD34+ bone marrow cells (All Cells, Cat #ABM022F, Emeryville, CA) were thawed and washed with 10 mL of StemPro®-34 SFM medium (Gibco, Life Technologies, Carlsbad, CA). Cells were resuspended in 1.25 mL of StemPro-34 SFM medium at 4×10^5 cells/mL and split equally into two tubes. One tube was untreated, and the other was treated with 10 μg/ml of NEG085 and both were incubated at 37° C., 5% CO2. 100 μL of cell suspension was collected at each timepoint (0, 15, 30, 60, 120, and 240 min) from each condition, and placed into an ice cold collection tube to cease internalization. Cells were washed with 3 mL of ice-cold FBS stain buffer and resuspended in 100 μL of FBS stain buffer. […] of 104D2-BV421 (mouse anti-human IgG1 k, Biolegend, San Diego CA) was added to each tube and incubated on ice for 1 hour. Following another wash with FBS stain buffer, total cKIT receptors were measured by flow cytometry by assessing the mean fluorescence intensity of BV421 on a FACS Canto II® (BD Biosciences, San Jose, CA)."}, "Uke-1 cells": {"system": "Uke-1 cells", "assay": "ADCC activity in vitro (Calcein release, NK3.3 effector cells)", "type": "cell-based", "conditions": "unconjugated IgG1, effector to target ratio 20 to 1", "protocol": "The ability of the unconjugated anti-cKIT antibodies (NEG085, 20376) to mediate antibody dependent cellular cytotoxicity was determined versus Uke-1 cells (target cells; generously provided by Professor Walter Fiedler, University Hospital Eppendorf, Hamburg, Germany) in co-incubation with NK3.3 cells (killer cells or effector cells; kindly provided by Jacky Kornbluth from Saint Louis University). […] In order to calculate the antibody specific lysis of the target cells, a parallel incubation of target cells only without antibody or effector cells served as a baseline and negative control, whereas the positive control or maximal lysis or hundred percent specific lysis was determined by lysis of target cells only with a 1% Triton-X 100 solution. […] Following a co-incubation of target and effector cells, the microtiterplate was centrifuged and an aliquot of the supernatant fluid was transferred to another microtiterplate (96 well, flat-bottomed, black with clear bottom; (Corning Costar, catalog #3904, Tewksbury, MA) and the concentration of free Calcein in solution was determined with a fluorescence counter (Victor 3 ® multilabel counter, Perkin Elmer, Waltham, MA)."}, "mouse cKIT": {"biological_target": "T1, mouse cKIT (Mus musculus, UniProt P05532)", "T1 construct": "cKIT receptor extracellular domains (ECD) were diluted in a 2-fold series", "T1 sequence (P05532 25-527 limits assumed)": "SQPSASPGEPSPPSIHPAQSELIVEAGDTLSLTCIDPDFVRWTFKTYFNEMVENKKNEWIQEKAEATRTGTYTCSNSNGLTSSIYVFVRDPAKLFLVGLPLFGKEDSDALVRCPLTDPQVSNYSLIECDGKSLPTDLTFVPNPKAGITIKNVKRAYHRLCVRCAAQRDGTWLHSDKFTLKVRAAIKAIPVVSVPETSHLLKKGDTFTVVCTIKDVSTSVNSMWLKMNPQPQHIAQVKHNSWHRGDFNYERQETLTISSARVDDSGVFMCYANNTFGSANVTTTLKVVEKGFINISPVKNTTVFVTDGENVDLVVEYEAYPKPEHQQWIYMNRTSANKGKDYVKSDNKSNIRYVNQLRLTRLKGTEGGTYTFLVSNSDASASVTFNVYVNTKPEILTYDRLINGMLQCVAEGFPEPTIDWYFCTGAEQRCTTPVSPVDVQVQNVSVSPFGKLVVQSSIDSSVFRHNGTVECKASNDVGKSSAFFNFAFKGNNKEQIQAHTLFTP", "assay": "SPR (Biacore) affinity measurement", "type": "binding", "conditions": "25° C., 1:1 model", "protocol": "Affinity of the antibodies to cKIT species orthologues and also to cKIT was determined using SPR technology using a Biacore® 2000 instrument (GE Healthcare, Pittsburgh, PA) and with CM5 sensor chips.\nBriefly, HBS-P (0.01 M HEPES, pH 7.4, 0.15 M NaCl, 0.005% Surfactant P20) supplemented with 2% Odyssey® blocking buffer (Li-Cor Biosciences, Lincoln, NE) was used as the running buffer for all the experiments. The immobilization level and analyte interactions were measured by response unit (RU). Pilot experiments were performed to test and confirm the feasibility of the immobilization of the anti-human Fc antibody (Catalog number BR100839, GE Healthcare, Pittsburgh, PA) and the capture of the test antibodies.\nFor kinetic measurements, the experiments were performed in which the antibodies were captured to the sensor chip surface via the immobilized anti-human Fc antibody and the ability of the cKIT proteins to bind in free solution was determined. Briefly, 25 μg/ml of anti-human Fc antibody at pH 5 was immobilized on a CM5 sensor chip through amine coupling at flow rate of 5 μl/minute on all two flow cells to reach 10,500 RUs. 0.1-1 μg/ml of test antibodies were then injected at 10 μl/min for 1 minute. Captured levels of the antibodies were generally kept below 200 RUs. Subsequently, 3.125 −50 nM of cKIT receptor extracellular domains (ECD) were diluted in a 2-fold series and injected at a flow rate of 40 μl/min for 3 min over both reference and test flow cells. Table of tested ECDs is listed below (Table 6). Dissociation of the binding was followed for 10 min. After each injection cycle, the chip surface was regenerated with 3 M MgCl2 at 10 μl/min for 30 seconds."}}, "note": "“Also recorded” adds a separate entry of the source."}
{"molecule": "B1", "values": [{"measurement": "time of bulk of cKIT internalization", "setting": "[1]", "result": 15, "unit": "min"}, {"measurement": "internalization of cKIT on human bone marrow cells", "setting": "[1]; 0-240 min", "result": "mediate rapid internalization; also recorded: rapidly internalized"}, {"measurement": "ADCC killing of target cells", "setting": "Uke-1 cells", "result": "do not induce ADCC; also recorded: not able to induce ADCC"}, {"measurement": "Affinity mouse cKIT (nM)", "setting": "mouse cKIT", "result": "Not reactive"}]}
